Results published in PMC9482650, “Quantitative fragmentomics allow affinity mapping of interactomes” (Nature Communications, 2022).

Columns and labels:
Assay in all cases: holdup assay
Set-up in all cases: key: below the threshold = too weak to quantify, mostly under pKd 3.1 to 4
[1] = target: Inadl_1, Q8NI35
[2] = target: T1, FRMPD1, Q5SYB0
T1 sequence (Q5SYB0 52-145, limits assumed, looked up): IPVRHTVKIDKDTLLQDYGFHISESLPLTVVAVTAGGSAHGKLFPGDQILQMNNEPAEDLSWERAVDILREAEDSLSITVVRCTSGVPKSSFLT

[3] = target: DLG2_3, Q15700
[4] = target: GRIP2_3, Q9C0E4
GRIP2_3, Q9C0E4, sequence (Q9C0E4 238-339): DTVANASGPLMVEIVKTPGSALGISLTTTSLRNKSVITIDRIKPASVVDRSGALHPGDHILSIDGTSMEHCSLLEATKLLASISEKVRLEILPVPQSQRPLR

[5] = target: GIPC2, Q8TF65
GIPC2, Q8TF65, sequence (Q8TF65 112-203): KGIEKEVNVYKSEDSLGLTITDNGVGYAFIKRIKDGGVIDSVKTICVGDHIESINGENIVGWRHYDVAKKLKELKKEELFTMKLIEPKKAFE

[6] = target: CASK, O14936
CASK, O14936, sequence (O14936 487-570): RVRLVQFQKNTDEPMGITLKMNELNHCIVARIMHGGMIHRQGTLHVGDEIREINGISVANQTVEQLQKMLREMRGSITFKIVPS

[7] = target: IL16_3, Q14005
IL16_3, Q14005, sequence (Q14005 1107-1207): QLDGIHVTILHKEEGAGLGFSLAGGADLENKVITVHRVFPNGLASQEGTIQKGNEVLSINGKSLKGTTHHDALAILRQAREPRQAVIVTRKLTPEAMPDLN

[8] = target: T2, MPDZ_5, O75970
T2 sequence (O75970 695-796, limits assumed, looked up): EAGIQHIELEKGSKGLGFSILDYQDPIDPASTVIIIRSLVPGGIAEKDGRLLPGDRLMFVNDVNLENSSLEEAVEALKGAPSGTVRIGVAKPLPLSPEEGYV

[9] = target: T3, DFNB31_1, Q9P202
T3 sequence (Q9P202 135-233, limits assumed, looked up): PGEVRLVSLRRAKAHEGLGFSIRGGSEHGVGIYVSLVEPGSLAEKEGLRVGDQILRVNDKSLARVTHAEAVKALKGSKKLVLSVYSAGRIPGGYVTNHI

[10] = target: T4, DFNB31_2, Q9P202
T4 sequence (Q9P202 274-371, limits assumed, looked up): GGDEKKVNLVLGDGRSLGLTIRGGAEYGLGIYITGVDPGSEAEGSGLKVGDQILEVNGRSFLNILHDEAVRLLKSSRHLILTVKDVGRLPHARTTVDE

[11] = target: T5, MPDZ_10, O75970
T5 sequence (O75970 1624-1722, limits assumed, looked up): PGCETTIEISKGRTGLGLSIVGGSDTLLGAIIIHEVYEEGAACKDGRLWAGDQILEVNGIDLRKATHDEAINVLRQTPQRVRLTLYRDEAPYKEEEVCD

[12] = target: FRMPD2_3, Q68DX3
FRMPD2_3, Q68DX3, sequence (Q68DX3 1073-1166): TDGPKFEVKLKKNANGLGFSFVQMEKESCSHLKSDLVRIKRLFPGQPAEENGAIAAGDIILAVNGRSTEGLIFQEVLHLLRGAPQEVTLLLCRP

[13] = target: SCRIB_2, Q14160
SCRIB_2, Q14160, sequence (Q14160 857-960): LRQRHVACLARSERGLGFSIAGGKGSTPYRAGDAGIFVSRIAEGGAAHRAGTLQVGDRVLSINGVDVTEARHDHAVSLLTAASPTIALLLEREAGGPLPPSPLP

[14] = target: Inadl_10, Q8NI35
Inadl_10, Q8NI35, sequence (Q8NI35 1673-1763): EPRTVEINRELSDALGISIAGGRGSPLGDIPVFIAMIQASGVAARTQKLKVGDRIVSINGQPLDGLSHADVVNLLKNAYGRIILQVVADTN

[15] = target: T6, RADIL, Q96JH8
T6 sequence (Q96JH8 971-1071, limits assumed, looked up): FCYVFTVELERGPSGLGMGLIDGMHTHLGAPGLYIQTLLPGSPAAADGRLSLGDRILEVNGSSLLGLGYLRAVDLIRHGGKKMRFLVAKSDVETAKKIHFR

[16] = target: T7, LIN7A, O14910
T7 sequence (O14910 103-200, limits assumed, looked up): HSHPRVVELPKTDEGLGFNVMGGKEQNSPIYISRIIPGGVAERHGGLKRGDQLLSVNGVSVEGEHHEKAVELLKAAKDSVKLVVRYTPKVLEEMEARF

[17] = target: GRID2IP_1, A4D2P6
GRID2IP_1, A4D2P6, sequence (A4D2P6 1-87): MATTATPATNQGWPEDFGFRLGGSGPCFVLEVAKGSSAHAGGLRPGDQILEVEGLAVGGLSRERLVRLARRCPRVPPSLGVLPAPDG

[18] = target: T8, NHERF3_1, Q5T2W1
T8 sequence (Q5T2W1 4-100, limits assumed, looked up): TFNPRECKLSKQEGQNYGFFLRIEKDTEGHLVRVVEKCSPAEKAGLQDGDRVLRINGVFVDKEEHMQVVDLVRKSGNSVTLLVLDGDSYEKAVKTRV

[19] = target: MAGI1_1, Q96QZ7
MAGI1_1, Q96QZ7, sequence (Q96QZ7 1-106): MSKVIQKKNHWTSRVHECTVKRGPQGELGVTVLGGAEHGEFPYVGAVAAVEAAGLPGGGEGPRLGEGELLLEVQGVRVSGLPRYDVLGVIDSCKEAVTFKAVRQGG

[20] = target: T9, DLG3_1, Q92796
T9 sequence (Q92796 125-227, limits assumed, looked up): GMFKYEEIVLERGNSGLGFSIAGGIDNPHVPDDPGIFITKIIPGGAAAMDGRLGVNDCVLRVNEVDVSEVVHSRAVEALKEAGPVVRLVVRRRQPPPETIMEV

[21] = target: GRASP, Q7Z6J2
GRASP, Q7Z6J2, sequence (Q7Z6J2 96-193): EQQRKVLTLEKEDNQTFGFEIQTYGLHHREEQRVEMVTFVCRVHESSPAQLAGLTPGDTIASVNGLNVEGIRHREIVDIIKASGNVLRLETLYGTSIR

[22] = target: MAGI2_2, Q86UL8
MAGI2_2, Q86UL8, sequence (Q86UL8 410-522): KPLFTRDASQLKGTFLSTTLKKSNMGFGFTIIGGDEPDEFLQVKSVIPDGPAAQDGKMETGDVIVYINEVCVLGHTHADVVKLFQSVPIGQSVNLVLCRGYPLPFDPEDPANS

[23] = target: T10, PARD3B_1, Q8TEW8
T10 sequence (Q8TEW8 196-299, limits assumed, looked up): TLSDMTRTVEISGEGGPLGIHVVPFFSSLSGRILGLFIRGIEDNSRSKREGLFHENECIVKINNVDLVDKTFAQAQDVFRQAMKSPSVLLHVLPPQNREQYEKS

[24] = target: PDLIM1, O00151
PDLIM1, O00151, sequence (O00151 1-87): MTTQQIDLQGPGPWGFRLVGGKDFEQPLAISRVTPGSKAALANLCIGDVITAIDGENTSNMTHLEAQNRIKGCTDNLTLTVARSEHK

[25] = target: SCRIB_1, Q14160
SCRIB_1, Q14160, sequence (Q14160 718-814): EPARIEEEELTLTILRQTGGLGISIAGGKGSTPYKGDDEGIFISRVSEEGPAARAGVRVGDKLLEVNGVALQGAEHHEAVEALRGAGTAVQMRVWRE

[26] = target: Inadl_5, Q8NI35
Inadl_5, Q8NI35, sequence (Q8NI35 673-780): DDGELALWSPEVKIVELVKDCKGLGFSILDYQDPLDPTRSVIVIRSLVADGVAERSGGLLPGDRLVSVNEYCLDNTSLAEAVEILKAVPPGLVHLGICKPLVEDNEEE

[27] = target: TJP2_1, Q9UDY2
TJP2_1, Q9UDY2, sequence (Q9UDY2 24-128): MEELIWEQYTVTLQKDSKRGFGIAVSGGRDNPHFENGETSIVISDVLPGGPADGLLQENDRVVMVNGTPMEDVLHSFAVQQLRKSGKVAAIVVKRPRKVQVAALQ

[28] = target: MAGI2_3, Q86UL8
MAGI2_3, Q86UL8, sequence (Q86UL8 600-682): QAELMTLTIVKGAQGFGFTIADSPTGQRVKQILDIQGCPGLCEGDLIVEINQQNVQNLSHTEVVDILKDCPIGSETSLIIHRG

[29] = plain residues with an end cap or a label only (N-terminal biotin on a linker: ttds)
[30] = plain residues with an end cap or a label only (N-terminal biotin on a linker: gsgsgs; C-terminal amide)

Measured: pKd

Inadl_1, Q8NI35, sequence (Q8NI35 113-229): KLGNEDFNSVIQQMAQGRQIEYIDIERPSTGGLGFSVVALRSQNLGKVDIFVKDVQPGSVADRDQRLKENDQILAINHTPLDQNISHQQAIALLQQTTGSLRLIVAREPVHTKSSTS

B1: SLC2A1, P11166 (peptide)
chain: FHPLGADSQV
below the threshold: [2]; [29] | [3]; [29] | [4]; [29] | [6]; [29] | [7]; [29] | [8]; [29] | [9]; [29] | [10]; [29] | [11]; [29] | [12]; [29] | [13]; [29] | [14]; [29] | [15]; [29] | [16]; [29] | [17]; [29] | [18]; [29] | [19]; [29] | [20]; [29] | [21]; [29] | [22]; [29] | [23]; [29] | [24]; [29] | [26]; [29] | [27]; [29] | [28]; [29]
3.49: [1]; [29]
3.5: [5]; [29]
4.02: [25]; [29]

B2: MLLT4_int, P55196 (peptide)
chain: YGIVQETTFDLGGDIH
3.77: [3]; [30]
below the threshold: [1]; [30] | [2]; [30] | [4]; [30] | [5]; [30] | [6]; [30] | [7]; [30] | [8]; [30] | [9]; [30] | [10]; [30] | [11]; [30] | [12]; [30] | [14]; [30] | [15]; [30] | [16]; [30] | [17]; [30] | [18]; [30] | [19]; [30] | [20]; [30] | [21]; [30] | [22]; [30] | [23]; [30] | [24]; [30] | [26]; [30] | [27]; [30] | [28]; [30]
3.65: [13]; [30]
4.3: [25]; [30]

B3: DOCK4, Q8N1I0 (peptide)
chain: RPLPRKVSQL
3.93: [21]; [29]
4.17: [3]; [29]
4.21: [18]; [29]
below the threshold: [1]; [29] | [2]; [29] | [4]; [29] | [5]; [29] | [6]; [29] | [7]; [29] | [8]; [29] | [9]; [29] | [10]; [29] | [11]; [29] | [12]; [29] | [13]; [29] | [14]; [29] | [15]; [29] | [16]; [29] | [17]; [29] | [19]; [29] | [20]; [29] | [23]; [29] | [24]; [29] | [25]; [29] | [26]; [29] | [27]; [29] | [28]; [29]
4.6: [22]; [29]
